Patent US20210130436A1

Target: PD-L1 (human) (UniProt Q9NZQ7)
Experiment: cell-based or functional assay

Chain of PD-L1 (human) (Q9NZQ7 19-290): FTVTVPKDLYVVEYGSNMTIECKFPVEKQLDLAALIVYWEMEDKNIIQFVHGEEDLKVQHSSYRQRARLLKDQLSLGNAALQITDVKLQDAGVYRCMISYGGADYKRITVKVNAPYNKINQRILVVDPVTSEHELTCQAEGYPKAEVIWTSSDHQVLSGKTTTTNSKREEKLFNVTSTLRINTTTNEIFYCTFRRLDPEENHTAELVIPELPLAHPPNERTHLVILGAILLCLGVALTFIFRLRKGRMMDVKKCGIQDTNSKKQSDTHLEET

Jurkat/IL2 + CHO/OKT3/PD-L1 reporter assay, RLU at CD80 Conc 5.0 nM [RLU] | RLU, Jurkat/IL2 + CHO/OKT3/PD-L1 Reporter Assay, CD80 Conc 5.0 nM [RLU] | Substance
914 | – | CD80 IgV-Fc E35D/L97R (from UniProt P33681 35-141) (Fc fusion)
1960 | – | CD80 IgV-Fc E35D/D46E (from UniProt P33681 35-141) (Fc fusion)
466 | – | CD80 IgV-Fc E35D/M47V/L85M/R94Q (from UniProt P33681 35-141) (Fc fusion)
– | 926 | CD80 IgV-Fc (inert) H18F/A26P/E35D/M47I/V68M/A71G/D90G (from UniProt P33681 35-141) (Fc fusion)
– | 1050 | CD80 IgV-Fc (inert) H18A/A26N/E35D/M47L/V68M/A71G/D90G (from UniProt P33681 35-141) (Fc fusion)
– | 994 | CD80 IgV-Fc (inert) H18Y/A26Q/E35D/M47T/V68M/A71G/D90G (from UniProt P33681 35-141) (Fc fusion)
1640 | – | CD80 IgV-Fc M43I/M47L/A71G (from UniProt P33681 35-141) (Fc fusion)
– | 761 | CD80 IgV-Fc (inert) H18Y/A26P/E35D/M47I/V68M/A71G (from UniProt P33681 35-141) (Fc fusion)
– | 738 | CD80 IgV-Fc (inert) H18V/A26R/E35D/M47L/V68M/A71G/D90G (from UniProt P33681 35-141) (Fc fusion)
– | 985 | CD80 IgV-Fc (inert) H18V/A26N/E35D/M47V/V68M/A71G (from UniProt P33681 35-141) (Fc fusion)
1140 | – | CD80 IgV-Fc E35D/T41S/N48T (from UniProt P33681 35-141) (Fc fusion)
1950 | – | CD80 IgV-Fc E35D/M47L/A71G (from UniProt P33681 35-141) (Fc fusion)
– | 957 | CD80 IgV-Fc (inert) H18V/A26K/E35D/M47L/V68M/A71G (from UniProt P33681 35-141) (Fc fusion)
1410 | – | CD80 IgV-Fc E35D/D46E/L85M (from UniProt P33681 35-141) (Fc fusion)
395 | – | CD80 IgV-Fc E35D/D46E/A91G (from UniProt P33681 35-141) (Fc fusion)
1170 | – | CD80 IgV-Fc Q27L/E35D/M47V/I61V/L85M (from UniProt P33681 35-141) (Fc fusion)
– | 972 | CD80 IgV-Fc (inert) H18R/A26P/E35D/D46N/M47V/V68M/A71G/D90P (from UniProt P33681 35-141) (Fc fusion)
1920 | – | CD80 IgV-Fc E35D/D46E/M47I (from UniProt P33681 35-141) (Fc fusion)
